In patent US20100285988:

How the values were obtained:
[1] = system: Aβ17-23 (LVFFAED) peptide
[2] = system: βCTFΔ (Aβ17-23 deleted form of βCTF)
[3] = system: βCTF-FLAG (recombinant β-secretase cleaved APP C-terminal fragment)

Substance: γ-secretase (human; HeLa cell membrane / solubilized HeLa membrane; endogenous in HEK293 cells)
- potency on Notch cleavage relative to APP-derived substrates [1]: the potency of this peptide is 6-fold less potent in the proteolytic cleavage of Notch by γ-secretase than that of APP-derived substrates
- Vmax [2]: Vmax values are 16±1 and 215±24 min^-1 µg^-1 for βCTF and βCTFΔ, respectively
- Vmax/Km or kcat/Km relative to βCTF [2]: is 42-fold greater than for the βCTF substrate
- apparent Km (Aβ40 production, ECL) [2]: 0.26±0.09 µM for βCTFA
- Vmax [3]: Vmax values are 16±1 and 215±24 min^-1 µg^-1 for βCTF and βCTFΔ, respectively
- apparent Km (Aβ40 production, ECL) [3]: the apparent Km is 0.47±0.09 µM for βCTF
- rate of γ-secretase hydrolysis (X40 product, ECL) relative to αCTF-FLAG [3]: The rate of γ-secretase hydrolysis of βCTF-FLAG is 12-fold greater than for hydrolysis of αCTF-FLAG
